According to article PMC8660799, “Cryo-EM reveals unique structural features of the FhuCDB Escherichia coli ferrichrome importer” (Communications Biology, 2021):
Where two headings read alike, the source gives them in different places.

Key:
BtuF (Escherichia coli) [1] = target: BtuF (Escherichia coli) (UniProt P37028); conditions: cited from earlier work
BtuF (Escherichia coli) [2] = target: BtuF (Escherichia coli) (UniProt P37028); conditions: cited from earlier work; remark: listed apart in the source
[3] = target: T1, FhuCB subcomplex (membrane subunit FhuB and cytosolic ATPase FhuC of the ferrichrome importer), wild type (Escherichia coli, UniProt P07821 1-265; P06972 1-660, red-tris-NTA 2nd generation dye on the His-tag (in the MST experiments)); test: MST; 40 nM FhuCB in detergent, His-tag labelled with red-tris-NTA 2nd generation dye; serial dilution of 1.6 μM FhuD with substrate ferrichrome; with ATP; Monolith NT.115pico, 20% LED power, medium MST power; conditions: both partners purified
T1 construct: cloned from the genome with the operon; a thrombin site stands between the His-tag and FhuC; Made from FhuCB-pET15b (FhuD gene deleted from FhuCDB-pET15b); The copy numbers (two FhuC, one FhuB) are told for the FhuCDB structure; In the gel filtration experiment the same chains came from the FhuCDB construct, co-expressed with FhuD; also called Fhu importer; wild-type FhuCB; source: E. coli …
T1 sequence (looked up) 1: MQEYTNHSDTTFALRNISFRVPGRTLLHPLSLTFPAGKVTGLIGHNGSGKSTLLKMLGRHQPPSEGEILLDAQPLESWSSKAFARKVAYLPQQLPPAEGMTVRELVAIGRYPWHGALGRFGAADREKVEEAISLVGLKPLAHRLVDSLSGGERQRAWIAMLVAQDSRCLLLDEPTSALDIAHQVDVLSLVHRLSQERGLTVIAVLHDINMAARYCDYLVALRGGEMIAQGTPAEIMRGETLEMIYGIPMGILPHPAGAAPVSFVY
T1 sequence (looked up) 2: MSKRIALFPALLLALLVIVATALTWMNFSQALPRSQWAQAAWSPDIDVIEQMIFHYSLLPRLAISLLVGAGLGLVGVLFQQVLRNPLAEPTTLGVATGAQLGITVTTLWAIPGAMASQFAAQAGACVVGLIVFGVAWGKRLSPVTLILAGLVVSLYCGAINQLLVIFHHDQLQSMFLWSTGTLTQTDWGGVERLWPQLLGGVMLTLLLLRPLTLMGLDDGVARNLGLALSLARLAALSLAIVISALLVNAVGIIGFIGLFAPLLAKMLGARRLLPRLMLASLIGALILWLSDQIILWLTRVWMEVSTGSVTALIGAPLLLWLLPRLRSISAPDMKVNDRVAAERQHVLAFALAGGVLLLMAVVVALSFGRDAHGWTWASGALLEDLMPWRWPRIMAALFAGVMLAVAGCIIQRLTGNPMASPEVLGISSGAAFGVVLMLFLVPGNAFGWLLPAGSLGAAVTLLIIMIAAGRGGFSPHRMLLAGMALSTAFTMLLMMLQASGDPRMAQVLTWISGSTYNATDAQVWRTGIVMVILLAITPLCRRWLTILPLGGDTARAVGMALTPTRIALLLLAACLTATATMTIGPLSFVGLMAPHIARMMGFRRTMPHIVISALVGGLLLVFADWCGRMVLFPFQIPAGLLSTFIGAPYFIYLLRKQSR

[4] = target: T1, FhuCB subcomplex (membrane subunit FhuB …); test: MST; 40 nM FhuCB in detergent, His-tag labelled with red-tris-NTA 2nd generation dye; serial dilution of 1.6 μM FhuD with substrate ferrichrome; without ATP-Mg; Monolith NT.115pico, 20% LED power, medium MST power; conditions: both partners purified
[5] = substrate: Nc1ncnc2c1ncn2[C@@H]1O[C@H](COP(=O)(O)OP(=O)(O)OP(=O)(O)O)[C@@H](O)[C@H]1O; test: ATPase assay in proteoliposomes, malachite green phosphate detection; type: biochemical, Escherichia coli; conditions: MgCl2, 37 °C

BtuF (Escherichia coli), sequence (P37028 23-266): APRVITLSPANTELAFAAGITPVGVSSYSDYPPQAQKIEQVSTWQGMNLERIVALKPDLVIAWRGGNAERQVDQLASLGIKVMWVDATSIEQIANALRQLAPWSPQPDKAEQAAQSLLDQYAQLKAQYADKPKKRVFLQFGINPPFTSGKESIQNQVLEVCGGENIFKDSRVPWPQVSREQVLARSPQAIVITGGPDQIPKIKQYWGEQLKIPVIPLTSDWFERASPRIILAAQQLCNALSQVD

In the case of BtuCD (from UniProt P06609), the Kd (BtuF (Escherichia coli) [1]) is listed as 21.1 nM and the Kd (BtuF (Escherichia coli) [2]) is listed as 0.00012 nM.

B1: FhuD, periplasmic substrate-binding protein, expressed alone (natural protein, Escherichia coli, UniProt P07822 31-296, looked up)
chain: AAIDPNRIVALEWLPVELLLALGIVPYGVADTINYRLWVSEPPLPDSVIDVGLRTEPNLELLTEMKPSFMVWSAGYGPSPEMLARIAPGRGFNFSDGKQPLAMARKSLTEMADLLNLQSAAETHLAQYEDFIRSMKPRFVKRGARPLLLTTLIDPRHMLVFGPNSLFQEILDEYGIPNAWQGETNFWGSTAVSIDRLAAYKDVDVLCFDHDNSKDMDALMATPLWQAMPFVRAGRFQRVPAVWFYGATLSAMHFVRVLDNAIGGKA
notes: the gene was amplified and cloned into pET15b; Used without substrate and loaded with the small molecule ferrichrome (told apart by the assays); also called SBP; ferrichrome-loaded FhuD
In the case of B1, the Kd [3] is reported as roughly 1.03 nM and the Kd [4] is reported as roughly 12.2 nM.

B2: FhuCB subcomplex (Escherichia coli K-12) (protein)
chain: T1 sequence (looked up) 1
notes: full-length FhuB and FhuC without FhuD; N-terminal His-tag and thrombin site on FhuC; pET15b, E. coli BL21(DE3) C43; purified in LMNG, reconstituted in E. coli polar lipid proteoliposomes; with Iron(3+)-hydroxamate import system permease protein FhuB
With B2 the Km ([5]; Michaelis-Menten fit with Hill coefficient (cooperative), no FhuD) was 690 ± 80 µM.

B3: FhuCB + FhuD (ATPase assay) (Escherichia coli K-12) (protein)
chain: T1 sequence (looked up) 1
notes: FhuCB (N-terminal His-tag and thrombin site on FhuC) in proteoliposomes with purified FhuD enclosed; with Iron(3+)-hydroxamate import system permease protein FhuB
With B3 the Km ([5]; Michaelis-Menten fit with Hill coefficient, 1 μM FhuD enclosed, no ferrichrome) was 740 ± 50 µM.
